Key:
Assay in all cases: cell_activity; CHO iGFFP reporter
[1] = biological target: T1, LOX 3-4 m.203 (artificial (I-CreI derived))
T1 chain: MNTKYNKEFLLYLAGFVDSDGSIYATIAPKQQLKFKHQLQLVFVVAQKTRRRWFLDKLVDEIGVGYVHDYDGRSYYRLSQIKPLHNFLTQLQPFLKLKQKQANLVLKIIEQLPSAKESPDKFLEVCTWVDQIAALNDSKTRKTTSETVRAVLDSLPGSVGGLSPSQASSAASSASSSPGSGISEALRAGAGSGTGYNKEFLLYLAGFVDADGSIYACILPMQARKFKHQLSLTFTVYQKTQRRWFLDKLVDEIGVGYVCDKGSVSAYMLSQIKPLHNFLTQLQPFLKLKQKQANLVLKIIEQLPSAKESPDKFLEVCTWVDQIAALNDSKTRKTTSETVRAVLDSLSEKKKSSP
Description: (§1) A CHO cell reporter system (see WO/2012/167192, FIG. 3) was used to determine whether the engineered meganucleases generated in these studies could recognize and cleave the modified LOX 3-4 recognition sequences in Table 87. To perform the assay, a pair of CHO cell reporter lines were produced, which carried a non-functional Green Fluorescent Protein (GFP) gene expression cassette integrated into the genome of the cell. The GFP gene in each cell line was interrupted by a pair of recognition sequences such that intracellular cleavage of either recognition sequence by a meganuclease would stimulate a homologous recombination event resulting in a functional GFP gene. In both cell lines, one of the recognition sequences was derived from the LOX 3-4 recognition sequence (i.e., those sequences disclosed in Table 87), and the second recognition sequence was specifically recognized by a control meganuclease called “CHO 23/24.” CHO reporter cells comprising a recognition sequence derived from the LOX 3-4 recognition sequence and the CHO 23/24 recognition sequence are referred to herein as “test cells.”
(§2) Novel engineered meganucleases derived from the LOX 3-4x.109 meganuclease were prepared by making amino acid substitutions at one or more positions in the first subunit. These engineered meganucleases were then evaluated for cleavage of the LOX 3-4 recognition sequence modified to have a GTGG center sequence (SEQ ID NO: 496) in the CHO reporter assay according to Example 1. Novel meganucleases which were modified to comprise the residues recited in the tables below were capable of cleaving the LOX 3-4 recognition sequence having a GTGG four base pair center sequence.

[2] = biological target: T2, LOX 3-4 m.201 (artificial (I-CreI derived))
T2 chain: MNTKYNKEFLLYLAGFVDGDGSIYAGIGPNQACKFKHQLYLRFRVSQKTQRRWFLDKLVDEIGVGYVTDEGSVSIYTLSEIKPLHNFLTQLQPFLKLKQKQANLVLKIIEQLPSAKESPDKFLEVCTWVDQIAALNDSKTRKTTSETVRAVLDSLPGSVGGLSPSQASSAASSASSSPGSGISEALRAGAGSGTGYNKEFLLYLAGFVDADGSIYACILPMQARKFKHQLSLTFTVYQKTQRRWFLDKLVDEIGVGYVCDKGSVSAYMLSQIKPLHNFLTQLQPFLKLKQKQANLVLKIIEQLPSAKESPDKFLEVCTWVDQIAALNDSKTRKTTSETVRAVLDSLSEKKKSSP
Description: as §1, §2

[3] = biological target: T3, LOX 3-4 m.192 (artificial (I-CreI derived))
T3 chain: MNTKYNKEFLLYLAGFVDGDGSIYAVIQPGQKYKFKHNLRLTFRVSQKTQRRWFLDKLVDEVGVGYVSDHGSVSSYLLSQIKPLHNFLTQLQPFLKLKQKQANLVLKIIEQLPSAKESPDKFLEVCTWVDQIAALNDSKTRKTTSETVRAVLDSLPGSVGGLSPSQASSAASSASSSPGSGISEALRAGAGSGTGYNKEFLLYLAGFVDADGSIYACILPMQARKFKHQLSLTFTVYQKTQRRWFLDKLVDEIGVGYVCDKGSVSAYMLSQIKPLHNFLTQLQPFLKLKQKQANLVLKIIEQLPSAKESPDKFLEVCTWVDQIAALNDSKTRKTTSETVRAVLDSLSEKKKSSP
Description: as §1, §2

[4] = biological target: T4, LOX 3-4 m.180 (artificial (I-CreI derived))
T4 chain: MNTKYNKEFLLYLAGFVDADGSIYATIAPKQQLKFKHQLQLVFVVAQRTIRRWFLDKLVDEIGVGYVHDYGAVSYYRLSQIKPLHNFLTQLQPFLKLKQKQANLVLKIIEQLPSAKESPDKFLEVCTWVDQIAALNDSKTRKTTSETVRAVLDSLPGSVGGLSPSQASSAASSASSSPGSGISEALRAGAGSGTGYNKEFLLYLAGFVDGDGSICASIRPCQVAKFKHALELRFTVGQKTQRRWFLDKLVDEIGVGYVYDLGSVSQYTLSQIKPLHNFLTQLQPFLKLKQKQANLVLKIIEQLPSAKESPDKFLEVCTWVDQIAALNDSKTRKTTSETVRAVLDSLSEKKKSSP
Description: as §1
as §2, with “GTGC” for “GTGG”, “463)” for “496)”

[5] = biological target: T5, LOX 3-4 m.186 (artificial (I-CreI derived))
T5 chain: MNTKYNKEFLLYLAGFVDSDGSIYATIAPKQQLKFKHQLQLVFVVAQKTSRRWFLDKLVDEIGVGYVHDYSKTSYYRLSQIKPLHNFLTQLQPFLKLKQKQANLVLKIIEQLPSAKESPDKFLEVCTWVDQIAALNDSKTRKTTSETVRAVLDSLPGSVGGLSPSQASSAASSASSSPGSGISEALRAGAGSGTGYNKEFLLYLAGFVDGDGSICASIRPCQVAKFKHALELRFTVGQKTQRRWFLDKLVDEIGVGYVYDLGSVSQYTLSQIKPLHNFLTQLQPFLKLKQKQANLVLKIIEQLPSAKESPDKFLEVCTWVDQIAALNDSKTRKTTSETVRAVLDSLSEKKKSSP
Description: as §1
as §2, with “GTGC” for “GTGG”, “463)” for “496)”

[6] = biological target: T6, LOX 3-4 m.181 (artificial (I-CreI derived))
T6 chain: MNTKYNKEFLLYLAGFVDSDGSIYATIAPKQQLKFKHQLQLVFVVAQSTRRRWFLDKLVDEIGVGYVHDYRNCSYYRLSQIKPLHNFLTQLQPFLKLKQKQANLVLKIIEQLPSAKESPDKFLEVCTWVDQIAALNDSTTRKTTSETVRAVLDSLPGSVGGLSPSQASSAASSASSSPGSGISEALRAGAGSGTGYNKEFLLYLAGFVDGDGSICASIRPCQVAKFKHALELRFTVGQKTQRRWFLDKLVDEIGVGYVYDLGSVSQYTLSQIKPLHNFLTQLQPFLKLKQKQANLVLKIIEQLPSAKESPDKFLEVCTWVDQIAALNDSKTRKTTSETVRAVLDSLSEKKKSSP
Description: as §1
as §2, with “GTGC” for “GTGG”, “463)” for “496)”

[7] = biological target: T7, LOX 3-4m.856 (artificial (I-CreI derived))
T7 chain: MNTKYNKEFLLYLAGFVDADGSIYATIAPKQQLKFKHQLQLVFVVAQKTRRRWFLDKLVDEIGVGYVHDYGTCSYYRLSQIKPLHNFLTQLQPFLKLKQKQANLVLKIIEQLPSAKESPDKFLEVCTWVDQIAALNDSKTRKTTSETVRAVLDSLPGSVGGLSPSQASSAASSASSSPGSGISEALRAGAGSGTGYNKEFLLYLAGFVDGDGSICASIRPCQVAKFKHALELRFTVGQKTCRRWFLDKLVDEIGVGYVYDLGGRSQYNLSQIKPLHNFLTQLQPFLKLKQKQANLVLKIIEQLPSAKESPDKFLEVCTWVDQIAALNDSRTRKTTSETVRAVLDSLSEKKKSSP
Description: as §1
(§3) Novel engineered meganucleases derived from the LOX 3-4x.109 meganuclease were prepared by making amino acid substitutions at one or more positions in the first subunit and one or more positions in the second subunit. In addition, two engineered meganucleases were generated that inserted an additional R residue following position 264, which corresponds to position 73 of wild-type I-CreI. These engineered meganucleases were then evaluated for cleavage of the LOX 3-4 recognition sequence modified to have an ACAG center sequence (SEQ ID NO: 34) in the CHO reporter assay according to Example 1.

[8] = biological target: T8, LOX 3-4m.776 (artificial (I-CreI derived))
T8 chain: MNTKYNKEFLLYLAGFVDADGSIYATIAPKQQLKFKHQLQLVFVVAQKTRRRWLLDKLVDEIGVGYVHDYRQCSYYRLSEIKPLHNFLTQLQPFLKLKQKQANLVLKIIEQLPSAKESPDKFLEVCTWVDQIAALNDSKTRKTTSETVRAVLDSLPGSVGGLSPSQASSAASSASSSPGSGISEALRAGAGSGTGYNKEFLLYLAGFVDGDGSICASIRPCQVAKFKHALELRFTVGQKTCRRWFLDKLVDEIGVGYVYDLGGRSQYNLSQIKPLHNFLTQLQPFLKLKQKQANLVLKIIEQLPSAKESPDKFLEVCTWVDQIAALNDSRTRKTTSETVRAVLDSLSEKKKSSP
Description: as §1, §3

[9] = biological target: T9, LOX 3-4m.775 (artificial (I-CreI derived))
T9 chain: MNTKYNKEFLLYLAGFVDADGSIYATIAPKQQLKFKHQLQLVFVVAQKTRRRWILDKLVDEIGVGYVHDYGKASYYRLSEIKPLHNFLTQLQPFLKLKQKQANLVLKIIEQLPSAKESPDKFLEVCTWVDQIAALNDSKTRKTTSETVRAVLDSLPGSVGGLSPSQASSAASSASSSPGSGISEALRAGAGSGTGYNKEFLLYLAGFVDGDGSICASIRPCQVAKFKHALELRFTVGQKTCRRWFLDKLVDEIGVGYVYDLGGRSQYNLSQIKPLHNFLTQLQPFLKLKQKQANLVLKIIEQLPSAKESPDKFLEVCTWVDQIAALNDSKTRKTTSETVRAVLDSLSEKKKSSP
Description: as §1, §3

[10] = biological target: T10, LOX 3-4m.788 (artificial (I-CreI derived))
T10 chain: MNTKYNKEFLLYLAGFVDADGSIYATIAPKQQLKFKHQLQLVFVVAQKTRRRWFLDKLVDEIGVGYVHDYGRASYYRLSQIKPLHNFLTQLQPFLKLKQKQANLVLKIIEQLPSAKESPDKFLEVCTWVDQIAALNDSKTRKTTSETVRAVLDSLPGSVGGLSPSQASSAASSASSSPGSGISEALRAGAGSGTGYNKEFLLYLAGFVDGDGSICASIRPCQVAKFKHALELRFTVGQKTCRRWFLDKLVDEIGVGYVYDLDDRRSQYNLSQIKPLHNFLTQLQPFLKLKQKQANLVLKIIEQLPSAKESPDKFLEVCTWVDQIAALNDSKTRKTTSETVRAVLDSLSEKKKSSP
Description: as §1, §3

B1: LOX 3-4 GTGG (dsDNA)
DNA 1: GTATAGCATGTGGTATACGAAG
DNA 2: CTTCGTATACCACATGCTATAC
activity [1]: 12.1 % GFP
activity [2]: 11 % GFP
activity [3]: 11.9 % GFP

B2: LOX 3-4 GTGC (dsDNA)
DNA 1: GTATAGCATGTGCTATACGAAG
DNA 2: CTTCGTATAGCACATGCTATAC
activity [4]: 13.7 % GFP
activity [5]: 13.4 % GFP
activity [6]: 13.8 % GFP

B3: LOX 3-4 ACAG (dsDNA)
DNA 1: GTATAGCATACAGTATACGAAG
DNA 2: CTTCGTATACTGTATGCTATAC
activity [7]: 10.8 % GFP
activity [8]: 10.4 % GFP
activity [9]: 12.2 % GFP
activity [10]: 10.5 % GFP

— patent US20220195407, “OPTIMIZATION OF ENGINEERED MEGANUCLEASES FOR RECOGNITION SEQUENCES” (Precision BioSciences, Inc., published 2022)
